Results taken from IntAct's records for PubMed 12782684.

B1: Ras-like protein 2 (Saccharomyces cerevisiae), P01120 (parent)
chain: MPLNKSNIREYKLVVVGGGGVGKSALTIQLTQSHFVDEYDPTIEDSYRKQVVIDDEVSILDILDTAGQEEYSAMREQYMRNGEGFLLVYSITSKSSLDELMTYYQQILRVKDTDYVPIVVVGNKSDLENEKQVSYQDGLNMAKQMNAPFLETSAKQAINVEEAFYTLARLVRDEGGKYNKTLTENDNSKQTSQDTKGSGANSVPRNSGGHRKMSNAANGKNVNSSTTVVNARNASIESKTGLAGNQATNGKTQTDRTNIDNSTGQAGQANAQSANTVNNRVNNNSKAGQVSNAKQARKQQAAPGGNTSEASKSGSGGCCIIS
partner: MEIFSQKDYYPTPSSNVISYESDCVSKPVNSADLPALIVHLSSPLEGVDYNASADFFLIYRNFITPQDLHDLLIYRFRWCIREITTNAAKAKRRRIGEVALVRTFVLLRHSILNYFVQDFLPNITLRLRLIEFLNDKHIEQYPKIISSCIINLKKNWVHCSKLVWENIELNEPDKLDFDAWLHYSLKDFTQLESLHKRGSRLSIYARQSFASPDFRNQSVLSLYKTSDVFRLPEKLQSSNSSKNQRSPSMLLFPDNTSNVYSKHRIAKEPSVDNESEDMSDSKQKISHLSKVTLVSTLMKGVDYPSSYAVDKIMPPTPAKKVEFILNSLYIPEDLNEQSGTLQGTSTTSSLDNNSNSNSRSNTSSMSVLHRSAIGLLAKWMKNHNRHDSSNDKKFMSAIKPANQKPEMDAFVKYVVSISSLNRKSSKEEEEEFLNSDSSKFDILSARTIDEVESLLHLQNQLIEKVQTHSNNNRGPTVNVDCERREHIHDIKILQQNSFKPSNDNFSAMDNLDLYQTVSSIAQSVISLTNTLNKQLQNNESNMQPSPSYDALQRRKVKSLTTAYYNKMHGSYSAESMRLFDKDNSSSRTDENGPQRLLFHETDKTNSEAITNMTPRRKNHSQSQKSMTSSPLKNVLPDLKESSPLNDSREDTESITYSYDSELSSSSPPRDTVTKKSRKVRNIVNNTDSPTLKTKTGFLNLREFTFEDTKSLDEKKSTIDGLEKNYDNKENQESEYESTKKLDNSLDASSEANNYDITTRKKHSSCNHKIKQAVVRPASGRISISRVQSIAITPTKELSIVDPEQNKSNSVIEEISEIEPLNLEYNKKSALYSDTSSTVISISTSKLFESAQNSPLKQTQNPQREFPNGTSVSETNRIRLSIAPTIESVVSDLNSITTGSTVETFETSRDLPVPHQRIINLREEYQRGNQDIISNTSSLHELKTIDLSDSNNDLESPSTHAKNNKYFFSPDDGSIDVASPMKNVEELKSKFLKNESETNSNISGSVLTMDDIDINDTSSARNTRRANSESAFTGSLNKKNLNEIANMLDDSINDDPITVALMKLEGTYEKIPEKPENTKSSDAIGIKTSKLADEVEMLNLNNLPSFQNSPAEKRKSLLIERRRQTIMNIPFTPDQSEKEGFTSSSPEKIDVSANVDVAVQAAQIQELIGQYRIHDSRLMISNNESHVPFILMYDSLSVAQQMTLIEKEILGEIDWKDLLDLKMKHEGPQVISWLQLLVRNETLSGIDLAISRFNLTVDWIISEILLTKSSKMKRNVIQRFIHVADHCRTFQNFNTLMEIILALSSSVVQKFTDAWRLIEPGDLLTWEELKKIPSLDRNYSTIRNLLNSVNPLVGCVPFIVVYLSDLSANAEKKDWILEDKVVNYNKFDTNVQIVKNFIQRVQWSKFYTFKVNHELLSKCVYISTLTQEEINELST

Variants of: B1
Conditions: with lte1_yeast LTE1, P07866

Variant	effect of a mutation on the interaction
MPLNKSNIREYKLVVVGGGGVNKSALTIQLTQSHFVDEYDPTIEDSYRKQVVIDDEVSILDILDTAGQEEYSAMREQYMRNGEGFLLVYSITSKSSLDELMTYYQQILRVKDTDYVPIVVVGNKSDLENEKQVSYQDGLNMAKQMNAPFLETSAKQAINVEEAFYTLARLVRDEGGKYNKTLTENDNSKQTSQDTKGSGANSVPRNSGGHRKMSNAANGKNVNSSTTVVNARNASIESKTGLAGNQATNGKTQTDRTNIDNSTGQAGQANAQSANTVNNRVNNNSKAGQVSNAKQARKQQAAPGGNTSEASKSGSGGCCIIS [G22N]	disrupting interaction

Variants of: B1
Conditions: with lte1_yeast LTE1, P07866
Remark: another data set of the same source

Variant	effect of a mutation on the interaction
MPLNKSNIREYKLVVVGGGGVGKSALTIQLTQSHFVDEYDPTIEDSYRKQVVIDDEVSILDILDTAGQEEYSAMREQYMRNGEGFLLVYSITSKSSLDELMTYYQQILRVKDTDYVPIVVVGNKSDLENEKQVSYQDGLNMAKQMNAPFLETSAKQAINVEEAFYTLARLVRDEGGKYNKTLTENDNSKQTSQDTKGSGANSVPRNSGGHRKMSNAANGKNVNSSTTVVNARNASIESKTGLAGNQATNGKTQTDRTNIDNSTGQAGQANAQSANTVNNRVNNNSKAGQVSNAKQARKQQAAPGGNTSEASKSGSGGSCIIS [C318S]	disrupting interaction

Variants of: B1
Conditions: with lte1_yeast LTE1, P07866
Remark: another data set of the same source

Variant	effect of a mutation on the interaction
MPLNKSNIREYKLVVVGGVGVGKSALTIQLTQSHFVDEYDPTIEDSYRKQVVIDDEVSILDILDTAGQEEYSAMREQYMRNGEGFLLVYSITSKSSLDELMTYYQQILRVKDTDYVPIVVVGNKSDLENEKQVSYQDGLNMAKQMNAPFLETSAKQAINVEEAFYTLARLVRDEGGKYNKTLTENDNSKQTSQDTKGSGANSVPRNSGGHRKMSNAANGKNVNSSTTVVNARNASIESKTGLAGNQATNGKTQTDRTNIDNSTGQAGQANAQSANTVNNRVNNNSKAGQVSNAKQARKQQAAPGGNTSEASKSGSGGCCIIS [G19V]	increasing interaction
